Test results as given in patent US10870872B2, “Enzymatic nucleic acid synthesis” (President and Fellows of Harvard College, priority 2016, dated 2020).

What was measured:
TdT [1] = molecular target: T1, TdT (Homo sapiens, UniProt P04053); settings: Ashley et al., Virology 77, 367-375 (1977); cited from earlier work
TdT [2] = molecular target: T1, TdT; test: pH regulation of TdT enzyme activity (extension reactions, TBE-Urea gel); assay type: biochemical
Experimental: The objective of these experiments is to determine the range of pH in which TdT is active.
1. A buffer of 50 mM Tris (base) and 50 mM Boric acid was prepared and its pH (initially at ˜8.5) was adjusted to 6.05, 6.9, 7.93, 8.96, 10.02, and 11.07 using acetic acid and sodium hydroxide. These buffers serve as 2× buffers in the experiments.
2. Extension reactions were assembled as follows:
3. Each reaction was incubated for 15 minutes and then loaded on a TBE-Urea gel with an unextended initiator for comparison.
In the following experiment, TdT was incubated at a pH for 15 minutes without the nucleotide or the initiator, it was then combined with the nucleotide and the initiator in such a way that the final pH of the mixture during polymerization would be different from that of the initial 15 min incubation.
1. A buffer of 50 mM Tris (base) and 50 mM Boric acid was prepared and its pH (initially at ˜8.5) was adjusted to 6.05, 6.9, 7.93, 8.96, 10.02, and 11.07 using acetic acid and sodium hydroxide. These buffers serve as 2× buffers in the experiment.
2. Extension reactions were assembled in two parts:
Eight different extension reactions were assembled with following pH used for the buffer in part 1 and part 2:
3. Both parts of each reaction were incubated for 15 minutes, they were then mixed to form the 20 μl total, then loaded on a TBE-Urea gel: […]

B1: TdT: template-independent DNA polymerase which extends single-stranded oligonucleotides (protein, UniProt P04053 1-509, looked up)
DNA nucleotidylexotransferase: MDPPRASHLSPRKKRPRQTGALMASSPQDIKFQDLVVFILEKKMGTTRRAFLMELARRKGFRVENELSDSVTHIVAENNSGSDVLEWLQAQKVQVSSQPELLDVSWLIECIRAGKPVEMTGKHQLVVRRDYSDSTNPGPPKTPPIAVQKISQYACQRRTTLNNCNQIFTDAFDILAENCEFRENEDSCVTFMRAASVLKSLPFTIISMKDTEGIPCLGSKVKGIIEEIIEDGESSEVKAVLNDERYQSFKLFTSVFGVGLKTSEKWFRMGFRTLSKVRSDKSLKFTRMQKAGFLYYEDLVSCVTRAEAEAVSVLVKEAVWAFLPDAFVTMTGGFRRGKKMGHDVDFLITSPGSTEDEEQLLQKVMNLWEKKGLLLYYDLVESTFEKLRLPSRKVDALDHFQKCFLIFKLPRQRVDSDQSSWQEGKTWKAIRVDLVLCPYERRAFALLGWTGSRQFERDLRRYATHERKMILDNHALYDKTKRIFLKAESEEEIFAHLGLDYIEPWERNA
- optimal pH (TdT [1]): 6.85
- TdT enzymatic activity (TdT [2]; pH ranges above 6 and below 11): highly active
- TdT enzymatic activity (TdT [2]; pH ranges below 6 and above 11): substantially inactivated
